Assay results from PMC3878821.
Positions count from the first letter of the chain named. Names and notes keep the numbering of the source.

B1: ROS1 kinase domain G2032R mutant (Homo sapiens; G2032R) (protein)
chain: IENLPAFPREKLTLRLLLGSGAFGEVYEGTAVDILGVGSGEIKVAVKTLKKGSTDQEKIEFLKEAHLMSKFNHPNILKQLGVCLLNEPQYIILELMEGRDLLTYLRKARMATFYGPLLTLVDLVDLCVDISKGCVYLERMHFIHRDLAARNCLVSVKDYTSPRIVKIGDFGLARDIYKNDYYRKRGEGLLPVRWMAPESLMDGIFTTQSDVWSFGILIWEILTLGHQPYPAHSNLDVLNYVQTGGRLEPPRNCPDDLWNLMTQCWAQEPDQRPTFHRIQDQLQLFRNFFLNSIYKSRDE
B2: ROS1 kinase domain (nonmutant) (Homo sapiens) (protein)
chain: B1 chain with R99G

Substrate: Nc1ncnc2c1ncn2[C@@H]1O[C@H](COP(=O)(O)OP(=O)(O)OP(=O)(O)O)[C@@H](O)[C@H]1O
Assay: in vitro enzymatic assay, Km app for ATP
Assay type: biochemical, Homo sapiens
Conditions: ATP-binding site

| Protein | Km |
| --- | --- |
| B1 | 22 µM |
| B2 | 65 µM |
